Data reported in patent US20210189005A1 (RALLYBIO IPA, published 2021).
Like-named read-outs stand apart in the source and are kept apart here.

What was measured:
[1] = biological target: T1, GPVI (hDID2) negative control peptide (UniProt Q9HCN6 21-205); assay: domain-deletion peptide ELISA
T1 construct: domain: hDID2; also called peptide negative control
T1 sequence (looked up): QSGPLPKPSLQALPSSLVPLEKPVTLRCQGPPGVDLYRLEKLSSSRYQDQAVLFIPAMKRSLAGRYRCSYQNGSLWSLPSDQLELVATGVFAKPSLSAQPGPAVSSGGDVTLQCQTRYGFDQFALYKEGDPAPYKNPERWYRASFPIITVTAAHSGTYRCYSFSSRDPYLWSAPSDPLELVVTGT
Experimental: Murine and human mAbs were used at concentrations of 1 and 10 μg/ml. MAb binding was detected by HRP-conjugated goat-anti-mouse IgG or HRP-conjugated goat-anti-human IgG. Absorbance at 492 nm was read on an microplate photometer (Multiskan E X, Thermo Scientific, Waltham, Mass.).

[2] = biological target: T2, integrin αVβ3 (vitronectin receptor) purified from human placenta (human, UniProt P06756 31-1048; P05106 27-788); assay: SPR (Biacore T200), integrin amine-coupled to CM5 chip, antibody injected 120 s
T2 construct: mature; Amine-coupled to a CM5 chip at 480 RU for SPR; also called purified αVβ3; Millipore CC1018
Experimental: (§1) The percentage of antibody bound at the end of the dissociation phase was calculated by dividing the RU at the end of dissociation period by the RU at the end of association period multiplied by 100%. Data presented are average percentage calculated from three different concentrations for each mAb.
(§2) SPR technology was used to assess the binding properties of the mAbs (Biacore T200 instrument, Biacore AB, Uppsala, Sweden). […] The purified βllbβ3 integrins (HPA-1a and HPA-1b antigen carrying versions) and αVβ3 were immobilized to the surface of a CM5 sensor chip on three different flow cells (FCs) at a density of 400, 340 and 480 response units (RU) respectively using standard amine coupling chemistry. An FC treated with the same chemicals but without protein was used as a reference surface. Purified monoclonal IgG samples (various concentrations) were injected over the chip surface at a flow rate of 30 μl/min. An association step of 120 sec was followed by a dissociation step of 120 sec. Regeneration of the sensor chip surface was accomplished using 10 mM Glycine-HCl (pH 1.5). The experiments were performed at 25° C. The collected data were analysed using BiaEvaluation 2.0.1 software. […] All chemicals for the Biacore experiment were purchased from GE Healthcare.

[3] = biological target: T3, purified integrin αIIbβ3 from HPA-1aa platelets (HPA-1a antigen carrying version) (human, UniProt P08514 32-1039; P05106 27-788); assay: as above
T3 construct: mature; Amine-coupled to a CM5 chip at 400 RU for SPR; also called αIIbβ3 (HPA-1a); αIIbβ3 from HPA-1aa individuals
Experimental: as §1, §2

[4] = biological target: T2, integrin αVβ3 (vitronectin receptor) …; assay: SPR, 120 s dissociation, average of three concentrations
Experimental: (§3) MAb samples were used in three different concentrations (20 μg/ml, 10 μg/ml and 5 μg/ml); the highest concentration is shown. Results are representative of the two independent experiments. […] Data presented are average RU generated by injection of three different concentrations of mAbs (20 μg/ml, 10 μg/ml and 5 g/ml). […] The percentage of antibody bound at the end of the dissociation phase was calculated by dividing the RU at the end of dissociation period by the RU at the end of association period multiplied by 100%. Data presented are average percentage calculated from three different concentrations for each mAb.
(§4) SPR technology was used to assess the binding properties of the mAbs (Biacore T200 instrument, Biacore AB, Uppsala, Sweden). […] The integrin αVβ3 was obtained from Millipore (cat. No: CC1018). The integrin αVβ3 was purified from human placenta by affinity chromatography using immobilized monoclonal antibodies to αVβ3 integrin. […] The purified βllbβ3 integrins (HPA-1a and HPA-1b antigen carrying versions) and αVβ3 were immobilized to the surface of a CM5 sensor chip on three different flow cells (FCs) at a density of 400, 340 and 480 response units (RU) respectively using standard amine coupling chemistry.

[5] = biological target: T3, purified integrin αIIbβ3 from HPA-1aa …; assay: as above
Experimental: as §3, §4

[6] = biological target: T2, integrin αVβ3 (vitronectin receptor) …; assay: SPR (Biacore T200), integrin amine-coupled to CM5 chip, after 120 s dissociation
Experimental: as §3, §4

[7] = biological target: T3, purified integrin αIIbβ3 from HPA-1aa …; assay: as above
Experimental: as §3, §4

[8] = biological target: T1, GPVI (hDID2) negative control peptide; assay: domain-deletion peptide ELISA; remark: listed apart in the source
[9] = biological target: T4, integrin αIIbβ3 (glycoprotein IIbIIIa) bearing HPA-1a (Leu33) on intact HPA-1a-positive platelets (human, UniProt P08514 32-1039; P05106 27-788); assay: MAIPA inhibition assay on HPA-1aa platelets; blocked antibodies: polyclonal anti-HPA-1a IgG of 10 donor sera
T4 construct: whole, on cells; HPA-1ab platelets carry both allotypes; results on them are marked in the row; also called HPA-1aa platelets; HPA-1a homozygous platelets
T4 sequence (P08514 32-1039, chain 1 of 2): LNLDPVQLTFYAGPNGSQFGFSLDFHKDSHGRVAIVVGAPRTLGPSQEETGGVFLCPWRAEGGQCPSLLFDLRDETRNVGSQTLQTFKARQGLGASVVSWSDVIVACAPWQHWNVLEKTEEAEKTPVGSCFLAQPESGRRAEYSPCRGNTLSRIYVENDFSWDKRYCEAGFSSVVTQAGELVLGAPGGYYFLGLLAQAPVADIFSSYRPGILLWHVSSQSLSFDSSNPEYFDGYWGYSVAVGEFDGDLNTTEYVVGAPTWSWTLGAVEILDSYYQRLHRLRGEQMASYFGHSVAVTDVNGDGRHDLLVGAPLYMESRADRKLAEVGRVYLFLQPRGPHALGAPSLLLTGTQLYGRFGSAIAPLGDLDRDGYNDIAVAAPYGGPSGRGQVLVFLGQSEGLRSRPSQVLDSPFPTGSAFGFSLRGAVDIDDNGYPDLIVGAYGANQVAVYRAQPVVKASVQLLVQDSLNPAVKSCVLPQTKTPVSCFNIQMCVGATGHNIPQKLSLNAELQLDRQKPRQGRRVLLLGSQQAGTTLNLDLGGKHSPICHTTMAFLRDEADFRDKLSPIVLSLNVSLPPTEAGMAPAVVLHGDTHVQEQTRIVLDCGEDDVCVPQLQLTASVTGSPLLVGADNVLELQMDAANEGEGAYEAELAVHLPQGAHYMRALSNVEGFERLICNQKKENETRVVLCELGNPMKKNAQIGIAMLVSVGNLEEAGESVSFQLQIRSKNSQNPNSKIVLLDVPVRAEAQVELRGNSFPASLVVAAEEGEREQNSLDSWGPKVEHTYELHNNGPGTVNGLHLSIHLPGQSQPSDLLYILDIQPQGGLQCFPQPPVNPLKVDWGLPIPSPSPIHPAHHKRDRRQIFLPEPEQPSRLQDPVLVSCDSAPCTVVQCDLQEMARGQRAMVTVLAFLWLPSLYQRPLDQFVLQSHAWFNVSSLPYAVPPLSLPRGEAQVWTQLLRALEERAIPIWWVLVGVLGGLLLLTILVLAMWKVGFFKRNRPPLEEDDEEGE
T4 sequence (P05106 27-788, chain 2 of 2): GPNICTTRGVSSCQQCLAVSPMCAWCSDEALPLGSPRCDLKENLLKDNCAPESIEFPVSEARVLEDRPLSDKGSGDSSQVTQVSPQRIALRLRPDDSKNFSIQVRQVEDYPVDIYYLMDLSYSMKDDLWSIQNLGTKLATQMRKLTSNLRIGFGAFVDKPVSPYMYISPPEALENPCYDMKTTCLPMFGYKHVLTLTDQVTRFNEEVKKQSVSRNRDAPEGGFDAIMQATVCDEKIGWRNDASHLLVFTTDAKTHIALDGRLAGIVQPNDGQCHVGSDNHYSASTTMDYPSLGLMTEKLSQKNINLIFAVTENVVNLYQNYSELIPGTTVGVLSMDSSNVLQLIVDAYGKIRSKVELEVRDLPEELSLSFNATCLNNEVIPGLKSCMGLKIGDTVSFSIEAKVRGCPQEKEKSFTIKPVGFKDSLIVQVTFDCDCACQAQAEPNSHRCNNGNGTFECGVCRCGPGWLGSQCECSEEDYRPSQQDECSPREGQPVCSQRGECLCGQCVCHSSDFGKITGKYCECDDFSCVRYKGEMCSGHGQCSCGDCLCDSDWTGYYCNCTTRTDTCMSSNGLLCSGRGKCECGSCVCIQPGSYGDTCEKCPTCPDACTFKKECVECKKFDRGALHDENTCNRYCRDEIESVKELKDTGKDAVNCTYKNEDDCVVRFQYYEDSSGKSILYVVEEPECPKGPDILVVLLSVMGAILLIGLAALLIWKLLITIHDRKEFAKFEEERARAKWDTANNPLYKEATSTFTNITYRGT

T3 sequence (P08514 32-1039, form in doubt, chain 1 of 2): as the sequence (P08514 32-1039, chain 1 of 2) above
T3 sequence (P05106 27-788, form in doubt, chain 2 of 2): as the sequence (P05106 27-788, chain 2 of 2) above
T2 sequence (P06756 31-1048, form in doubt, chain 1 of 2): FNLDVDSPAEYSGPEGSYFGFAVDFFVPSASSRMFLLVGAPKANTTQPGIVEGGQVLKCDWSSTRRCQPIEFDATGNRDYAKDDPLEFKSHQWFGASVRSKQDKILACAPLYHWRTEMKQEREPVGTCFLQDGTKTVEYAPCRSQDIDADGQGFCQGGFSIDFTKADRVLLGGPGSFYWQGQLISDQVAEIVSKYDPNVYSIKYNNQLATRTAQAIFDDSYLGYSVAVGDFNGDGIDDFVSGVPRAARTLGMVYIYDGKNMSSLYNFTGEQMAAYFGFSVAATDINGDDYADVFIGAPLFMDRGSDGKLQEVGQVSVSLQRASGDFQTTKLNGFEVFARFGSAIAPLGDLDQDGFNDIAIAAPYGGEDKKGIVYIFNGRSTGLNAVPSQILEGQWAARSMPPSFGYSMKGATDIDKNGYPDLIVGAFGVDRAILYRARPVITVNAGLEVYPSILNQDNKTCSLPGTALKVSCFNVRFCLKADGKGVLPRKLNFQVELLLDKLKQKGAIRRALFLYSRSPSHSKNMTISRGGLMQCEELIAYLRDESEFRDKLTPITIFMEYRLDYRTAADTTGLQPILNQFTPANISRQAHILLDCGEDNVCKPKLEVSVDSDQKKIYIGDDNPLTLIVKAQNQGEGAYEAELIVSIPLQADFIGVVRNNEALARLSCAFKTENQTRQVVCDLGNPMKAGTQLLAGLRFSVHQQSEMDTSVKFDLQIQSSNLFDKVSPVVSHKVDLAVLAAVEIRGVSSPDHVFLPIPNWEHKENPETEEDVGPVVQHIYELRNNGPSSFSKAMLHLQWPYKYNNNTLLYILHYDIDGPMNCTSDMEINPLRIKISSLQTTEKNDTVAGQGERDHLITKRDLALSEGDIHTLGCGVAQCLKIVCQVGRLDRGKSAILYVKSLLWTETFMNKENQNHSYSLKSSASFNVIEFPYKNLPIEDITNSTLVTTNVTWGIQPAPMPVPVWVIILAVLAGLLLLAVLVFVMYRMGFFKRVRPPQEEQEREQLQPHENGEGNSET
T2 sequence (P05106 27-788, form in doubt, chain 2 of 2): as the sequence (P05106 27-788, chain 2 of 2) above

B1: human HPA-1a-specific recombinant monoclonal antibody B2G1 (antibody, V domains shown)
VH: QVQLVQSGAEVKRPGAAVKVSCKASGYRFTGHYMHWVRQAPGQGLEWMGWINPNSGGTSYAQKFQGRVTMTRDTSISTAYMEMTRLRYDDTAVYYCAAGGLGGYYYYAMNIWGQGTTVTVSS
VL: QSALTQPASVSGSPGQSITISCTGTSSDVGGYNYVSWYQQHPGKAPKLMIYEVSNRPSGVSNRFSGSKSGNTASLTISGLQAEDEADYYCSSYTSSSTWVFGGGTKLTVL
notes: Generated by phage display and produced recombinantly as a human IgG detected by anti-human IgG; also called clone B2G1
binding result [1]: no binding (tested: 10 µg/ml)
bound (RU) [2]: 11.2 RU
bound (RU) [3]: 56.1 RU
% remaining bound at the end of the dissociation period [4]: 31.4%
% remaining bound at the end of the dissociation period [5]: ~81%
% dissociated [6]: 70.5%
bound after dissociation (RU) [6]: 3.3 RU
% dissociated [7]: 22%
bound after dissociation (RU) [7]: 43.8 RU

B2: mouse monoclonal antibody SZ21 (antibody, V domains shown)
VH: LQESGPELVNPGASMKISCKASGYSFTGYTMNWVKQSHGKNLEWIGLINPYHGGSSYNQKFKGKATLTVDKSSSTAYMELLSLTSEDSAVYFCARRDANYVFFFDYWGQGTTVT
VL: ELTQSPALMSASPGEKVTMTCSASSGVSYIHWYQQKSGTSPKRWIYDTSKLASGVPARFSGSGSGTSYSLTISSMEAEDAATYYCQQWSSKPPTFGGGTKLE
notes: Bought murine mAb; variable regions as in Genebank AF354053 and AF354054 (the printed entries look truncated at both ends); also called clone SZ21; anti-β3 mAb (clone SZ21)
binding result [8]: no binding (tested: 10 µg/ml)

B3: recombinant monoclonal antibody 26.4 IgG1 (antibody)
heavy: not shown
light: EIVLTQSPATLSLSPGERATLSCRASQSVSSYLAWYQQKPGQAPRLLIYDASKRATGIPARFSGSGSGTDFSLTIRSLEPEDFAVYYCQQRSDWQGLTFGGGTKVEIKRTVAAPSVFIFPPSDEQLKSGTASVVCLLNNFYPREAKVQWKVDNALQSGNSQESVTEQDSKDSTYSLSSTLTLSKADYEKHKVYACEVTHQGLSSPVTKSFNRGEC
notes: also called 26.4G1
binding result [1]: no binding (tested: 10 µg/ml)
bound (RU) [2]: 18.8 RU
bound (RU) [3]: 63.1 RU
% remaining bound at the end of the dissociation period [4]: 66.8%
% remaining bound at the end of the dissociation period [5]: ~81%
% dissociated [6]: 35.1%
bound after dissociation (RU) [6]: 12.2 RU
% dissociated [7]: 21.4%
bound after dissociation (RU) [7]: 49.6 RU

B4: mAb 26.4 F(ab')2 fragment (other)
VH: QVQLQQSGPGLVKPSQTLSLTCAISGDSVSSNSAAWNWIRQSPSRGLEWLGRTYFRSNWYNDYAASVKSRITINQDTSKNQLSLQLNSVTPEDTAMYYCARDGAWGGSSWWPGLPHHYYSGMDVWGQGTTVTVSS
VL: EIVLTQSPATLSLSPGERATLSCRASQSVSSYLAWYQQKPGQAPRLLIYDASKRATGIPARFSGSGSGTDFSLTIRSLEPEDFAVYYCQQRSDWQGLTFGGGTKVEIK
IC50 (read off the curve) [9]: ~5 µg/50 µl
